Experimental data from PMC10501992, “How Pol α-primase is targeted to replisomes to prime eukaryotic DNA replication” (Molecular Cell, 2023).

How the values were obtained:
[1] = molecular target: T1, budding yeast CMG (Cdc45-Mcm2-7-GINS) replicative helicase (S. cerevisiae, UniProt Q08032 1-650; P29469 1-868; P24279 1-971; P30665 1-933; P29496 1-775; P53091 …); assay: cryo-EM structure; budding yeast replisome: 150 nM CMG on fork DNA (39 nt 3′ flap, 60 nt 5′ flap) with 1.5-fold molar excess of Tof1-Csm3, Mrc1 and Pol α-primase; 25 mM HEPES-NaOH pH 7.6, 150 mM NaOAc, 0.5 mM TCEP, 500 μM AMP-PNP, 10 mM Mg(OAc)2, on ice; 10-30% glycerol gradient with glutaraldehyde and BS3 cross-linkers; conditions: both partners purified
T1 construct: Cdc45, S. cerevisiae; Mcm2, S. cerevisiae; Mcm3, S. cerevisiae; Mcm4, S. cerevisiae (named only within Mcm2-7); Mcm5, S. cerevisiae; Mcm6, S. cerevisiae (named only within Mcm2-7); Mcm7, S. cerevisiae (named only within Mcm2-7); Psf1, subunit of GINS, S. cerevisiae; Psf2, subunit of GINS, S. cerevisiae; Sld5, subunit of GINS, S. cerevisiae; source: S. cerevisiae strain yJY197, expressed and …

Tof1 (budding yeast) = molecular target: T2, Tof1 (budding yeast) (S. cerevisiae, UniProt P53840 1-1238); assay: as above; conditions: both partners purified
T2 construct: Tof1, S. cerevisiae; stood in the assay as a subunit of m13; source: subunit of Tof1-Csm3 from S. cerevisiae strain yAE48, purified as described previously
T2 sequence: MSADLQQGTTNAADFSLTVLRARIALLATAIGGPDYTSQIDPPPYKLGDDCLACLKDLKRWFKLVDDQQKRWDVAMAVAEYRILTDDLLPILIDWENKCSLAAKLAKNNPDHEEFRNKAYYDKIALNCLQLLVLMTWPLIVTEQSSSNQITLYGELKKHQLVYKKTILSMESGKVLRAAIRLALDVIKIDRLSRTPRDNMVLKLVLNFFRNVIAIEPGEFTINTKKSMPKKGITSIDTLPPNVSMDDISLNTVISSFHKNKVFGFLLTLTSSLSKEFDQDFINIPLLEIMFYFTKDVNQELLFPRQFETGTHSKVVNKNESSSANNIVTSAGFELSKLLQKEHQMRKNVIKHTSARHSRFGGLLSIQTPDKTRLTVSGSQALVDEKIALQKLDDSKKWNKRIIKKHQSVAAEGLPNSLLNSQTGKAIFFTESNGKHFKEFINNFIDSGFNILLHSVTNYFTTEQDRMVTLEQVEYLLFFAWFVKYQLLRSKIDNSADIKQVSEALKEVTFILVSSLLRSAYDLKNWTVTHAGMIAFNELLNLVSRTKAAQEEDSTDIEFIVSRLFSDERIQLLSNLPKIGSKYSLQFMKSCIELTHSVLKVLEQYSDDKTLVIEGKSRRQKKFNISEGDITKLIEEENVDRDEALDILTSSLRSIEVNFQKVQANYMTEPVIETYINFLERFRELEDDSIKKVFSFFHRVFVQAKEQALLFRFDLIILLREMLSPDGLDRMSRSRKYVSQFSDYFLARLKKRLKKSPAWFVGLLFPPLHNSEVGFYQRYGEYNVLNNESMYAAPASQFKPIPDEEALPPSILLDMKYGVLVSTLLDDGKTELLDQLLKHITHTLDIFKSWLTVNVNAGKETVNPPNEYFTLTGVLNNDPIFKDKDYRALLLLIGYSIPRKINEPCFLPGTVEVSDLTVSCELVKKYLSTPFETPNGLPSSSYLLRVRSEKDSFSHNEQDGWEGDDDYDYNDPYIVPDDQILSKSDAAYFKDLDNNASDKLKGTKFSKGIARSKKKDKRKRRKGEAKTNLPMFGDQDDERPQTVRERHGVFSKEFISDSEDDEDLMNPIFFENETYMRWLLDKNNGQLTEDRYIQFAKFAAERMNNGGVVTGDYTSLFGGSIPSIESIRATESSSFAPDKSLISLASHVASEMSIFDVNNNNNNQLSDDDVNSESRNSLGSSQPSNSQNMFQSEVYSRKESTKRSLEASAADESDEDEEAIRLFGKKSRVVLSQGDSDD

binding result [1]: binds
binding result (Tof1 (budding yeast)): binds
B1: Mrc1 (budding yeast) (natural protein, S. cerevisiae)
chain: MDDALHALSSLTAKKRTTTYKKVAVPILDENDNTNGNGPNDIDNPPELTGNGFLFANATLNRVKNRLEGKKAPEQNHNNGKDRSENSLPTQLISNLYDGGEELEKSEVKDNSYSEKNVSSSFTQTQRIPVSIQQDKVFNVPIHSVNDGKPTQLIKEDGLVNETSQALKTPLTTGRPGATQRIDSSGATSQTQPIKSIEPQSQIITTSSNHSNALSPKIPIIPTELIGTSPLFQSIQNRGPDTQMDVPPQTAHDEDKTQAIGIPQATHQEQKTQIDTVAQTLQDEVPHTLKIREIQSELASEDSKREKARNVEYKKPQKPIPTKKFFSKESFLADFDDSSSNEDDDIKLENAHPKPVQNDDELHENKSVELNLTDETRINEKRVPLLSSYANNLKREIDSSKCITLDLDSDSDEYGDDDMDSIKLSKDESVLPISQLSKATILNLKARLSKQNQKLSQRPNKSKDPKVDHNVLLNTLRKASRKQILDHQKEVIETKGLKLEDMAKEKEIVENLLEQEILRNKRIRQKEKRREKLEENDFQLNAHDSGSDSGSESSGFALSGNEIADYESSGSENDNRRESDSEKEDDEIILKQKKSHHVKHIINESDSDTEVEAKPKEKADESLPKRIAINLGHYGDNIGEDTDKFQETNVLDTQNIEEVMAERNTIENEVKDDVYVNEEADEAIRRQLIDKEKLQLKQKEKEHEAKIKELKKRGVTNFFEMEAEESEDEWHGIGGADGEGSDDYDSDLEKMIDDYSKNNFNPHEIREMLAAENKEMDIKMINKILYDIKNGGFRNKRAKNSLELELSDDDEDDVLQQYRLKRRELMRKRRLEIGDDAKLVKNPKSSAFFESMVEDIIEYKNPFGAEEEYNLDITSTATDLDTQDNSINVGDNTGNNEQKPVDQKNKKVIISEDFVQKSLSFLKSNNYEDFETDKELSRIQHGNDEAIEDLYTLKQNSSIKSFTNSQTDSTTSKTVNTIIDLEKRPEDEDEVENGDTSLVGVFKHPSIIKSFASRTDINDKFKEGNKTVKILKSYKTVGSSKASITYMGKTRKLIAPKRKTEGSHRYHHDHHNKKMKMKTKTKSNKLFESGQDSFDN
notes: Mrc1, S. cerevisiae; several small sections modelled (S339-K323 as printed, D468-Q483, N842-E858); source: S. cerevisiae strain yJY32, expressed and purified as described previously
